Assay results from paper PMC5605622, “Agdc1p – a Gallic Acid Decarboxylase Involved in the Degradation of Tannic Acid in the Yeast Blastobotrys (Arxula) adeninivorans” (Frontiers in Microbiology, 2017).

Assays:
purified protein [1] = substrate: O=C(O)c1cc(O)c(O)c(O)c1; assay: purified protein; assay type: biochemical, Blastobotrys adeninivorans; conditions: 50 mM potassium phosphate pH 6.2, 40 °C
purified protein [2] = substrate: O=C(O)c1ccc(O)c(O)c1; assay: purified protein; assay type: biochemical, Blastobotrys adeninivorans; conditions: 50 mM potassium phosphate pH 6.2, 40 °C

B1: Agdc1-6hp (Agdc1p, gallic acid decarboxylase) (Blastobotrys adeninivorans) (protein)
chain: MTTSYEPWPQLYSHLNGTNEEVLDRMKVAELCKGWSVYRDASEWANFKEMFTPDANIWTTWSGAQTIDSFIQISKDGKDKGAFIMHRECGTLVDLNPKTQRAIGKMKTTITQRFEYEGVPFDIDCDNYFIFFCLKDSNGDWKARWYKVFYVKDKFVPVGVPTAENMEKLAKLFSKENLEQYPWGYQYLAVAQANLGYPIDKKLPTWKNELYHTMYDAMKEWMEGKEIDLHW
notes: full-length ORF (696 bp, 232 residues as printed), C-terminal 6xHis tag kept, expressed in A. adeninivorans G1212, IMAC purified
Work on B1 yielded a Km (purified protein [1]) of 700 ± 200 µM, a kcat (purified protein [1]) of 42.0 ± 8.2 s⁻¹ and a Km (purified protein [2]) of 3200 ± 200 µM. The kcat (purified protein [2]) was 44.0 ± 3.4 s⁻¹.
